Experimental data reported in patent publication US20080081025A1, “Uv Absorbing Chromophores Covalently Bonded to Hyperbranched Polymers” (DSM IP ASSETS B.V., priority 2004, published 2008).

Assays:
[1] = In vitro SPF on PMMA plates using the SPF-290S Analyzer System; conditions: sunscreen containing 5% UV filter; 1.4 mg sunscreen per cm^2 on PMMA plates; triplicate
[2] = UV absorption (specific extinction E1/1) of the polymeric filter; format: physicochemical; conditions: in CHCl3 at 309 nm
Method: (§1) Cesium carbonate (16 g, 50 mmol) and potassium iodate (50 mg) were added to a solution of 4-(1,3-benzoxazol-2-yl)-phenol I (8.9 g, 42 mmol) (prepared according to Passerini, J. Chem. Soc. 1954, 2256-2257) in NMP (N-methylpyrolidon) (100 mL) and the mixture stirred under Argon at 80° C. for 20 min. A solution of mesylated poly(glycerol-b-propylene oxide) (7.48 g, 4.4 mmol, 35 mmol MsO) in NMP (60 mL) was added dropwise and the reaction mixture stirred at 80° C. for 12 h. Water and ethyl acetate were added (200 mL each), an orange precipitate was separated by filtration, and the aqueous layer was extracted with ethyl acetate (2×100 mL). […] The amount of attached chromophore was determined using ^1H NMR, comparing the integration of the signals of the phenol's aromatic protons at 6.99 and 8.12 ppm to trimethylolpropane CH3 at 0.87 ppm, to give an average of about 8 chromophores/polymer.
Potassium tert. butylate (2.3 g) were added to a solution of 4-Dicyanomethylene-2,6-dimethyl-1,4-dihydropyridine-N-ethane-2-ol (4.3 g, 20 mmol) in NMP (50 mL) and the mixture stirred under Argon at rt. for 10 min. […] This product was chromatographed in Ethylacetate/Ethanol=19:1 and the fractions were analyzed by GPC. […]
Hybrane200 D2000 (WO 99/16810) was supplied from DSM Hybrane (Geleen, The Netherlands) with a Mn of about 2000 g/mol as determined by GPC. […]

[3] = Solubility in Tegosoft TN (C12-C15 alkylbenzoate); format: physicochemical
Method: as §1
Hybrane200 D2000 (WO 99/16810) was supplied from DSM Hybrane (Geleen, The Netherlands) with a Mn of about 2000 g/mol as determined by GPC. […] The amount of attached chromophore was determined using ^1H NMR, comparing the integration of the signals of the aromatic protons at 6.59 and 7.85 ppm to the CH3 of the aliphatic chain at 0.86 ppm, to give an average of about 8 chromophores/polymer.

[4] = Photostability according to G. Berset et al., applying the prepared sunscreen instead of a liquid film; format: physicochemical; conditions: Brij O/W sunscreen containing 5% (w/w) chromophore; Berset method
Method: The photostability of the conjugates according to the present invention may be measured according to G. Berset et al. International Journal of Cosmetic Science 1996, 18(3), 167-177.
The hyperbranched chromophore II (5.0 g, corresponding to 5% (w/w) UV-filter/sunscreen) was dissolved in Tegosoft TN at 80° C. and added to a mixture of Brij 72 (INCI: Steareth-2) (2.0 g), Brij 721 (INCI: Steareth-21) (2.0 g), Lanette O (cetearyl alcohol) (2.0 g), Estol GMM 3650 (glyceryl monomyristate) (2.0 g), BHT (butylhydroxytoluene) (0.05 g) and Phenonip (phenoxyethanol and methyl-, ethyl-, propyl-, butylparaben) (0.8 g). The mixture was shortly heated to 80° C. in order to melt solid emulsifiers. To the still warm mixture (70-80° C.) a preheated solution (˜80° C.) of glycerin (4.0 g) and EDTA BD (0.1 g) in water (62.95 g) and subsequently 10% aqueous KOH (0.1 g) as well as Sepigel 305 (polyacrylamide and C13-C14 isoparaffin and Laureth-7) (1.0 g) were added slowly under continuous stirring. The resulting emulsion was stirred until a temperature of about 40° C. was reached, homogenized with 24,000 rpm using a ULTRA-TURRAX®, and finally stirred for an additional hour. […] Each in vitro SPF was determined in triplicate to give for chromophore II and Parsol® MCX an average of 6.6 (II) and 6.8, respectively.

Row | SMILES | in vitro SPF (average) [1] | E1/1/-value [2] | solubility in Tegosoft TN [3] | photostability: chromophore recovered [4] [%]
1 | CCCCC(CC)COC(=O)C=Cc1ccc(OC)cc1 (centres unmarked) [Parsol® MCX, 2-ethylhexyl 4-methoxycinnamate, reference compound] | 6.8 |  |  | 
2 | CCC(COCC(COCC(C)Oc1ccc(-c2nc3ccccc3o2)cc1)OCC(C)OCC(C)Oc1ccc(-c2nc3ccccc3o2)cc1)(COCC(COCC(C)OCC(C)Oc1ccc(-c2nc3ccccc3o2)cc1)OCC(C)Oc1ccc(-c2nc3ccccc3o2)cc1)COCC(COCC(COCC(C)Oc1ccc(-c2nc3ccccc3o2)cc1)OCC(C)Oc1ccc(-c2nc3ccccc3o2)cc1)OCC(COCC(C)Oc1ccc(-c2nc3ccccc3o2)cc1)OCC(C)Oc1ccc(-c2nc3ccccc3o2)cc1 (centres unmarked) [chromophore II] | 6.6 | 840 | at least 24 % (w/w) | 96
